From the nanobody polyreactivity screen of Harvey et al. (2022) come the findings set out here.

This data set can be described thus: yeast display, Sf9 membrane polyspecificity reagent, FACS + sequencing; frameworks hold sequencing errors. A digest of the protocol:
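Using colony PCR, genes from sorted yeast display clones were amplified, then sequenced on MiSeq at 2 × 250 and filtered by CDR length. The clones had been stained with 10% biotinylated, detergent-solubilized Sf9 membrane reagent for 1 hour at 4 °C and sorted by FACS into low and high (top ~1%) gates on anti-HA and streptavidin fluorescence. Polyreactivity labels come from the gate of origin.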
For “QDQLVESGVGLVQAGGSHRLSCAASGSIFGWYARGWYRQAPGKERELGATITTGGSTNYADSVKGRFTISRDNAKNTVYLQMNSLKPEDTAVYYCAAGYNTWYGQYGYWGQGTQVTVSS”, the “polyreactivity (PSR sort gate)” value is “low polyreactivity”.
On to “QDQLVESGVGLVQAGGSLRLSCASSGRIFDPYAMGWYRQAPGKERELVARITWRGGRTYYADSVKVRFTISLDNAKNTVYLQMNSLKPEDTAVFYCNADFYYRYYCAYDYWGQGTQVTVSS”, for which the “polyreactivity (PSR sort gate)” value was “high polyreactivity”.
In the case of “QDQLVESRGALVQAGGSLRLSCAASGITFVRNAMGWYRQAPGKERELVAAISSGGSTYYADSVKGRFTISRDNAKNTVYLQMNSLTREDTAVYYCAVLSSWRFSGYDYWGQGSQVTVSS”, the “polyreactivity (PSR sort gate)” value is on record as “low polyreactivity”.
Next, “QDQLVESRGGLVQAGGSLRLSCAASGIIFGYYAMGWYRQAPGKERELVAAISRRGGSTYYADSVKGRFTISRDNAKNTVYLQMNSLKPEDTAVYYCAAVELRLSTPDMESWGQGTQVTVSS”: “high polyreactivity”; “QDQLVESVGGLVQAGGSLRLSCAASASTFGSNAMGWYRQAPGKDREFVAAISRRGGSTYYADSVKGRFTFSRDNAKNTVYLQMNSLKPEDTAVYYCAADYISLREEHYWGHGTQVTVSS”: “high polyreactivity”; “QDQLVESVGGLVQAGGSLRLSCAASGLIFYYYDMGWYRQAPGKERELVAAISSRGSSTYYADSVKGRFTISRVNAKNTVYLQMNSLKPEDTAVYYCAADSVSKYFGYDYWGQGTQVTVSS”: “high polyreactivity”.
Next, “QDQLVESVGGLVQAGGSLRLSCAASGSIFNRYVMGCYSQAPGKERELVAAMSRRGGNTYYADSVKGRFTISRDNAKNTVYLQMNSLKPEATAVYYCAADYSYYYGYDYWGQGTQVTVSS”: “high polyreactivity”; “QDQLVESVGGLVQAGGSLRLSCAASGSTISLYAMGWYRQAPGKERELVAAISQSGSRTYFADSVKGRFTISRDNAKNTVYLQMISLKQEDTAVYYCAAYSPQTYLRWTYGYWGQGTQVTVSS”: “high polyreactivity”.
With “QDQLVQSGGGLVQAGGSLRKSCAASGSTFNPNTMGWNKQAPGKERELVASITWRGGRTYYADSVKGRFTISRDNAKNTVSLQMNSLKPEDTAVFYCASVTFSYDGYDYWGQGTQVTVTS” the entry was “low polyreactivity”; with “QDQLVQSGGGLVQAGGSLRLSCAASGRTFGKYAMGWYRQAPGKERELVAAITGGGGTKYADSVKGRFTISGDNAKNSVYLQMNSLKPEDTAVYYCAAASGSRRHGYWGQGTQVTVSS”, “high polyreactivity”.
As to “QDQLVQSGGGLVQAGGSLRLSCDASGSTLNWYAMGRYRQAPGKERELVAVITSSGVSTYYADSVKGRFTISRDNAKNTVYLQMNSLKPEDTAVYYCNAKWYRWQRGTVKYDYWGQGTQVTVSS”, the “polyreactivity (PSR sort gate)” value is given as “low polyreactivity”.
With “QDQRVESGGGLVQAGGSLRLSCAASGRTFKGNARGWYRQAPGKERELVAAISKSGGRTYYADSVKARFTISRDNAKNTVYLQMNSLKPEDTAVYYCAVDEGPTIVRFGYSGQGTQVTVSS” the entry was “high polyreactivity”; with “QEHLVESGGGLVQAGGSLRLSCAAYGSIFVSYAMGWYRQAPGKERELVAAISWSGGSTYYADSVKGRFTISRDNAKNTVYLQMNSLKPEDTAVYYCNGVPSEGFDWGQGTQVTVSS”, “low polyreactivity”.
For the sequence “QEQLQESGGCLVQAGGSLRLSCAASGSIFKVVDMGLYRQSPAKEREFVATIGEGGKTYYADSVKGRFTISRDNEKNTVYLQMNSLKPEDTAVYFYAVVLGTSYRYTYWGEGTQVTVSS”, the “polyreactivity (PSR sort gate)” value is “low polyreactivity”.
As for “QEQLQESGGGLEQPGGSLRLSCAASGSISGSSTMGWYRQAQGKERELVASIAVGANTNYADSAKGRFTISRDNAKNPVYLQMNSLKPEDTAVYYCAVDYYIYYFHYWGQATQVTVSS”, the “polyreactivity (PSR sort gate)” value was “high polyreactivity”.
For the sequence “QEQLQESGGGLVQACGSLRLSCAASGSISGSSTMGWYRQAPGKERELVASIAVGANTNYADSAKGRFTISRDNAKTTVYLQMNSLKPEDSAVYYCAADYWFGYGTYEYWGQGTQVTVSS”, the “polyreactivity (PSR sort gate)” value is “high polyreactivity”.
Turning to “QEQLQESGGGLVQAGCSLRLSCAANGYIFSVEYMGCYCLAPGKEREFVATINYDTSTYYADSVKGRFTISRDNAKNTVYLQMNSLKPEDTAVYYCAAYFYAYRSPGYWGLGTQVTVSS”, the “polyreactivity (PSR sort gate)” value is reported as “high polyreactivity”.
For the sequence “QEQLQESGGGLVQAGGSLCLSCAASGTIFFDGDMGWYRQAPGKEREFVAAINPGGSAYYADSVKGRLPLAAITHTVYLQMNSLKPEDTAVYYCAAKLFDVYGYYYWGQGTHVTVSS”, the “polyreactivity (PSR sort gate)” value is “low polyreactivity”.
With “QEQLQESGGGLVQAGGSLRLSCAASGIIFDWFFMGWYRQAPGREREFVAAITYGATTNYADSVKGRFTISRDNGKNTVYLQMNSLKPEDTAVYYCAAVRGRGGTHAYWGQGTQVTVSG” the entry was “low polyreactivity”.
As to “QEQLQESGGGQVQAGGSLLLSCAASGNIIRYYYMGWYRQAQGKVRELVAAITYGTSTNYADSVKGRFTISRDNAKNTVYLQMNSLKPEDTAVYYCAVDVNYGDPLDNWGEGTQVTVSS”, the “polyreactivity (PSR sort gate)” value is “high polyreactivity”.
With “QEQLQESGSGLVQAGGSLRLSCAASGNIFHDWVMGWYRQAPGKERELVAAISPGAITYYADSVKGRFTISRDNAKNTVYLQTNSLKPEDTAVYYCAAYYIVEYLHGYWGQGTRVTVSS” the entry was “low polyreactivity”.
With “QEQLQESGSGLVQAGGSLRLSCAASGNIFQDWVMGWYRQAPGKERELVAAISHGAITYYADSVKGRFTISRDNAKYTVYLQTNSLKREDTAVYYCAAYYIVEYLHGYWGQGTRVTVSS” the entry was “low polyreactivity”; with “QEQLQESGSGLVQAGGSLRLSCAASGNIFQDWVRGWYRQAPGKERELVAAISPGAITYDADSVKGRFTISRDNAKNTVYLQTNSLNPEDTAVYYCAAYYIVEYLQGYWGQGTRVTVSS”, “low polyreactivity”.
Take “QEQLQESGVGLVQAGGSLRLICEASGSISQAWYMGWYRQAPGKERELVAAINVGAITYYADSVKGRFSISRDNAKNTVYLPMNSLTPDDTAVYYCAVDQYSEAYYDYWGQGTQATVSS”: the “polyreactivity (PSR sort gate)” value was “high polyreactivity”.
In the case of “QEQLQGSGGGLAQAGDSLRLSCAASGTIFSEYNNGLVSPGAGQRTRTCCRYWCWGNTYYADSAKGRFTTIRDNAKNTVYLQKNSLKPEDTAVYYCAFNRPYPSRHIYRGQGTQVTVSS”, the “polyreactivity (PSR sort gate)” value was “high polyreactivity”.
With “QEQLVESGGGFVQAGGSLRLSCAASGRIFTGYAMGWYRQAPGKERELVAVITWSTGSSTYYADSVKGRFTISRDNAKNTVYLQMNSLNPEDTAVYYFNAAYKIDFTYDTYDYWGQGTQVTVSS” the entry was “low polyreactivity”; with “QEQLVESGGGLVQAGGSLGLSCAASGLTFSYYAMRWYRQAPGKERELVAAIDYSGGTTYADSVKGRFTISRDNAKNTVYLQMNSLKPEDTAVYYCAAAPDGWFASGDEYWGQGTQVTVSS”, “high polyreactivity”.
Next, “QEQLVESGRGLVQAGGSLRVSCAASGSIFSVNGMGWYRQAPGKARELVAAIRRSGGSTYYADSVKGRFTISRDHAKNTVNLQRNSLKPEDTAVYYCAAPVRQSSYTRYDAWGQGTQVTVSS”: “high polyreactivity”; “QFHLVDSGGGLVQAGCSLRLSCAASGFTFNSYAMGWYRQAPGKERELVASITRGGGSTYYADSVKGRFTISRDNAKNTVYLKMNSLKPEDTAVYYCTARVRRRGGSFNYWGQGTQVIVSS”: “high polyreactivity”; “QFHLVESGGGLLQAGGSLRLSCAASGRIFYANDMGWYRQAPGKERELLAAISQSGGSTFYADSVKGRFTISRDNAKNTVYLQMNSLKPEDTAVYYCATDYYGPVYDLDYDYWGQGTQVSVSS”: “low polyreactivity”.
